Target: T1, HLA-A*02:01 CD22 p228-236 tetramer (human)
T1 construct: Bought monomer, loaded by UV peptide exchange and made into a tetramer; The streptavidin and label are not described; also called p-MHC tetramer
Assay: p-MHC tetramer staining of T cells of co-culture well D146W8, flow cytometry

binding result: binds
B1: TCR clone D146W8 (native clone on the T cells of co-culture well D146W8) (TCR, V domains shown)
V domain 1: QKEVEQNSGPLSVPEGAIASLNCTYSDRGSQSFFWYRQYSGKSPELIMFIYSNGDKEDGRFTAQLNKASQYVSLLIRDSQPSDSATYLCAVKGAGGFKTIFGAGTRLFVKA
V domain 2: DTGVSQNPRHKITKRGQNVTFRCDPISEHNRLYWYRQTLGQGPEFLTYFQNEAQLEKSRLLSDRFSAERPKGSFSTLEIQRTEQGDSAMYLCASSPGNTEAFFGQGTRLTVV
notes: also called D146W8 TCR; not shown: constant region of the native human clone
